± gives the uncertainty stated by the source.
Test: protein stability index of a GFP-peptide fusion (yeast GPS) (PSI 1-4); higher = more stable; sorted into four equal gates, so the index is relative within each strain
How it was run: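 Each library plasmid carries Cherry plus GFP with a tiled 17-residue yeast protein peptide fused downstream, and the pooled library was carried in yeast. Mid-log cultures in leucine-free medium were sorted into four equal gates by GFP/Cherry ratio. Reads from Illumina sequencing of PCR-amplified plasmids from each gate were assigned to strains by barcodes. Per peptide, the protein stability index was computed as the summed products of gate read frequency and gate number.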

MGDELTRSHFNALYDTL [RPN6]
protein stability index (doa10∆): 2.3 ± 0.048 | protein stability index (pdr5∆): 2.45 ± 0.067 | protein stability index (san1∆): 2.67 ± 0.051 | protein stability index (ubr1∆): 2.74 ± 0.044

ALLQRLKTNGKQNNKDF [MTW1]
protein stability index (doa10∆): 2.97 ± 0.1 | protein stability index (pdr5∆): 3.33 ± 0.14 | protein stability index (san1∆): 3.04 ± 0.13 | protein stability index (ubr1∆): 2.28 ± 0.091

GAKNIEITVVKPDSDIV [PRE6]
protein stability index (doa10∆): 2.54 ± 0.047 | protein stability index (pdr5∆): 2.46 ± 0.041 | protein stability index (san1∆): 2.57 ± 0.052 | protein stability index (ubr1∆): 2.67 ± 0.059

TDNMSGRGLWNPSYPGM [YJL039C/NUP192]
protein stability index (doa10∆): 3.14 ± 0.26 | protein stability index (pdr5∆): 3.11 ± 0.18 | protein stability index (ubr1∆): 2.84 ± 0.26

EDTELYQELIKNGALVS [YJL039C/NUP192]
protein stability index (pdr5∆): 2.77 ± 0.087 | protein stability index (san1∆): 3.21 ± 0.11 | protein stability index (ubr1∆): 2.57 ± 0.069

MLKRFFPGVKGLVHDLC [SMC1]
protein stability index (san1∆): 1.95 ± 0.14 | protein stability index (ubr1∆): 2.42 ± 0.17

TKYSDVLGFLQLFHNLI [YJL039C/NUP192]
protein stability index (doa10∆): 2.75 ± 0.063 | protein stability index (pdr5∆): 2.65 ± 0.062 | protein stability index (san1∆): 2.86 ± 0.048 | protein stability index (ubr1∆): 2.94 ± 0.049

VLVSSVTEANIIKLVEG [RPS12]
protein stability index (doa10∆): 2.52 ± 0.12 | protein stability index (pdr5∆): 2.58 ± 0.067 | protein stability index (san1∆): 2.67 ± 0.083 | protein stability index (ubr1∆): 2.71 ± 0.072

YVERFETQLKVVTRSKE [SMC1]
protein stability index (doa10∆): 1.12 ± 0.066 | protein stability index (pdr5∆): 2.29 ± 0.091 | protein stability index (san1∆): 1.26 ± 0.2 | protein stability index (ubr1∆): 2.11 ± 0.051

GVSLLIAGHDEFNGFSL [PRE8]
protein stability index (doa10∆): 1.99 ± 0.18 | protein stability index (pdr5∆): 2.18 ± 0.1 | protein stability index (san1∆): 1.97 ± 0.1 | protein stability index (ubr1∆): 2.07 ± 0.093

ETEQEYSPSNEISISFD [YDL116W/NUP84]
protein stability index (doa10∆): 2.65 ± 0.058 | protein stability index (pdr5∆): 2.89 ± 0.067 | protein stability index (san1∆): 2.52 ± 0.059 | protein stability index (ubr1∆): 2.98 ± 0.048

GASIIQVIFEIFEISLQ [YML103C/NUP188]
protein stability index (doa10∆): 1.53 ± 0.046 | protein stability index (pdr5∆): 1.82 ± 0.044 | protein stability index (san1∆): 2.1 ± 0.065 | protein stability index (ubr1∆): 2.06 ± 0.043

DCRMGNFYIQYDPKDGL [AAR2]
protein stability index (doa10∆): 2.77 ± 0.054 | protein stability index (pdr5∆): 2.39 ± 0.058 | protein stability index (san1∆): 2.31 ± 0.08 | protein stability index (ubr1∆): 2.61 ± 0.037

GFTASVSNQENAGTDIV [MED1]
protein stability index (doa10∆): 2.95 ± 0.14 | protein stability index (pdr5∆): 2.91 ± 0.13 | protein stability index (san1∆): 2.64 ± 0.16 | protein stability index (ubr1∆): 3.07 ± 0.072

ACEPTAEKFVPIDIFQI [SIR3]
protein stability index (doa10∆): 2.72 ± 0.092 | protein stability index (pdr5∆): 2.71 ± 0.059 | protein stability index (san1∆): 2.66 ± 0.07 | protein stability index (ubr1∆): 2.98 ± 0.048

SYEYYNIKHKHTSIRET [SMC2]
protein stability index (doa10∆): 1.61 ± 0.047 | protein stability index (pdr5∆): 1.83 ± 0.066 | protein stability index (san1∆): 1.67 ± 0.11 | protein stability index (ubr1∆): 1.87 ± 0.049

SSDDLQNCWSLINDSYI [SSN8]
protein stability index (doa10∆): 1.94 ± 0.068 | protein stability index (pdr5∆): 2.03 ± 0.081 | protein stability index (san1∆): 1.53 ± 0.11 | protein stability index (ubr1∆): 1.74 ± 0.064

ISSHSHPVSLISFAIYS [RRP42]
protein stability index (doa10∆): 1.51 ± 0.052 | protein stability index (pdr5∆): 1.62 ± 0.058 | protein stability index (san1∆): 1.86 ± 0.075 | protein stability index (ubr1∆): 1.54 ± 0.033

NRRLVYSRILKSMGRKC [YCG1]
protein stability index (doa10∆): 1.41 ± 0.12 | protein stability index (pdr5∆): 1.17 ± 0.084 | protein stability index (san1∆): 1.3 ± 0.2 | protein stability index (ubr1∆): 1.14 ± 0.067

ESCEDILDLKEFDRRIL [RTT102]
protein stability index (doa10∆): 2.78 ± 0.16 | protein stability index (pdr5∆): 3.37 ± 0.16 | protein stability index (san1∆): 3.23 ± 0.072 | protein stability index (ubr1∆): 3.07 ± 0.092

MKANPALYVLRERIRKG [PRP8]
protein stability index (doa10∆): 2.47 ± 0.23 | protein stability index (pdr5∆): 2.87 ± 0.11 | protein stability index (san1∆): 2.66 ± 0.12 | protein stability index (ubr1∆): 2.41 ± 0.29

KRIHSVRTRGGNKKYRA [RPS8A]
protein stability index (doa10∆): 2.509 ± 0.024 | protein stability index (pdr5∆): 2.621 ± 0.022 | protein stability index (san1∆): 2.626 ± 0.025 | protein stability index (ubr1∆): 2.591 ± 0.018

SNDIIDKPYLLRIVTHL [YDL116W/NUP84]
protein stability index (doa10∆): 1.93 ± 0.11 | protein stability index (pdr5∆): 1.99 ± 0.09 | protein stability index (san1∆): 3.09 ± 0.15 | protein stability index (ubr1∆): 1.93 ± 0.076

GVSIENENKVIIELPNE [SRB4]
protein stability index (doa10∆): 2.77 ± 0.1 | protein stability index (pdr5∆): 3.02 ± 0.1 | protein stability index (san1∆): 3.06 ± 0.055 | protein stability index (ubr1∆): 2.6 ± 0.06

FDPSKDVLINELLDQVT [CDC53]
protein stability index (doa10∆): 2.74 ± 0.066 | protein stability index (pdr5∆): 2.15 ± 0.047 | protein stability index (san1∆): 2.24 ± 0.087 | protein stability index (ubr1∆): 2.5 ± 0.054

QIVQVLKQPPFQITLSS [SSN8]
protein stability index (doa10∆): 2.12 ± 0.062 | protein stability index (pdr5∆): 2.06 ± 0.074 | protein stability index (san1∆): 1.86 ± 0.094 | protein stability index (ubr1∆): 2.54 ± 0.081

PQNMLFEGCYYTPEESA [RPC25]
protein stability index (pdr5∆): 2.42 ± 0.21 | protein stability index (san1∆): 2.55 ± 0.21 | protein stability index (ubr1∆): 2.5 ± 0.12

IMLLQLELGSCFSQENI [SIN4]
protein stability index (doa10∆): 1.64 ± 0.046 | protein stability index (pdr5∆): 1.87 ± 0.047 | protein stability index (san1∆): 2.52 ± 0.067 | protein stability index (ubr1∆): 2.27 ± 0.062

QINQGVPSAKPLILTPP [SNF11]
protein stability index (doa10∆): 2.75 ± 0.055 | protein stability index (pdr5∆): 2.3 ± 0.052 | protein stability index (san1∆): 2.8 ± 0.058 | protein stability index (ubr1∆): 2.02 ± 0.032

EECSGRRWNKLCTLNDS [YGL100W/SEH1]
protein stability index (doa10∆): 2.99 ± 0.051 | protein stability index (pdr5∆): 3.17 ± 0.053 | protein stability index (san1∆): 2.82 ± 0.05 | protein stability index (ubr1∆): 2.78 ± 0.041

VEEIKLQKEKELHKEGT [SMC2]
protein stability index (pdr5∆): 3.03 ± 0.12 | protein stability index (san1∆): 2.81 ± 0.095 | protein stability index (ubr1∆): 2.97 ± 0.096

IIRLLPINLENNDGSYG [SRB8]
protein stability index (doa10∆): 1.7 ± 0.064 | protein stability index (pdr5∆): 1.24 ± 0.048 | protein stability index (san1∆): 1.21 ± 0.077 | protein stability index (ubr1∆): 1.39 ± 0.048

MAHENVWFSHPRRYGKG [RPS29A]
protein stability index (doa10∆): 3.39 ± 0.24 | protein stability index (pdr5∆): 2.95 ± 0.17 | protein stability index (san1∆): 3.18 ± 0.14 | protein stability index (ubr1∆): 3.18 ± 0.23

KRANNIRKFFGLSKEDD [RPS6A]
protein stability index (doa10∆): 3.39 ± 0.17 | protein stability index (pdr5∆): 3.22 ± 0.11 | protein stability index (san1∆): 2.98 ± 0.15 | protein stability index (ubr1∆): 3.56 ± 0.11

SAVVSSNASRRKLINYT [RPN4]
protein stability index (doa10∆): 2.77 ± 0.11 | protein stability index (pdr5∆): 2.53 ± 0.14 | protein stability index (san1∆): 2.55 ± 0.069 | protein stability index (ubr1∆): 3.26 ± 0.14

WIWDMNVHGSLEPFLLM [BRR2]
protein stability index (doa10∆): 1.61 ± 0.06 | protein stability index (pdr5∆): 2.08 ± 0.078 | protein stability index (san1∆): 1.72 ± 0.2 | protein stability index (ubr1∆): 1.81 ± 0.077

YGPSFTKRESLNARMFL [SIR2]
protein stability index (doa10∆): 1.85 ± 0.068 | protein stability index (pdr5∆): 2.42 ± 0.049 | protein stability index (san1∆): 2.22 ± 0.08 | protein stability index (ubr1∆): 1.65 ± 0.036

PLSVATELMNRSPLVTP [SRP72]
protein stability index (doa10∆): 2.14 ± 0.068 | protein stability index (pdr5∆): 2.48 ± 0.069 | protein stability index (san1∆): 2.4 ± 0.06 | protein stability index (ubr1∆): 2.03 ± 0.06

LYHLVIMKFQSLSDNDL [ECM29]
protein stability index (pdr5∆): 1.65 ± 0.25 | protein stability index (ubr1∆): 3.28 ± 0.25

FTLTYDIIETFSSKRKT [YMR129W/POM152]
protein stability index (doa10∆): 1.88 ± 0.05 | protein stability index (pdr5∆): 2.07 ± 0.064 | protein stability index (san1∆): 1.69 ± 0.077 | protein stability index (ubr1∆): 2.33 ± 0.056

LTKKEKKEANLFPEQQT [RPL6B]
protein stability index (doa10∆): 3.08 ± 0.073 | protein stability index (pdr5∆): 3.21 ± 0.072 | protein stability index (san1∆): 3.25 ± 0.06 | protein stability index (ubr1∆): 3.15 ± 0.049

FWSLHSSTYYNLDYLFE [NUT1]
protein stability index (doa10∆): 2.44 ± 0.053 | protein stability index (pdr5∆): 2.05 ± 0.037 | protein stability index (san1∆): 2 ± 0.063 | protein stability index (ubr1∆): 1.95 ± 0.029

AIATTVIAHLTVEALDF [RET1]
protein stability index (doa10∆): 2.54 ± 0.12 | protein stability index (pdr5∆): 2.32 ± 0.083 | protein stability index (san1∆): 2.71 ± 0.076 | protein stability index (ubr1∆): 2.37 ± 0.053

KNAANTEGHKGHEELKR [ISW2]
protein stability index (doa10∆): 3.43 ± 0.086 | protein stability index (pdr5∆): 3.16 ± 0.081 | protein stability index (san1∆): 3.2 ± 0.098 | protein stability index (ubr1∆): 3.35 ± 0.061

EKEEEAKEESDDDMGFG [RPP2B]
protein stability index (doa10∆): 3.05 ± 0.2 | protein stability index (pdr5∆): 3.29 ± 0.14 | protein stability index (san1∆): 2.84 ± 0.15 | protein stability index (ubr1∆): 3.43 ± 0.07

FLIHSGQPVNDFIDTAT [RPS3]
protein stability index (doa10∆): 2.71 ± 0.053 | protein stability index (pdr5∆): 3 ± 0.056 | protein stability index (san1∆): 3.09 ± 0.05 | protein stability index (ubr1∆): 3.04 ± 0.073

IDGSTSHEERIEAIDEY [ISW2]
protein stability index (doa10∆): 3.26 ± 0.079 | protein stability index (pdr5∆): 3.26 ± 0.11 | protein stability index (san1∆): 3.06 ± 0.091 | protein stability index (ubr1∆): 3.32 ± 0.047

DWIRFVSIRQNQYKLVF [RPL22B]
protein stability index (doa10∆): 1.37 ± 0.076 | protein stability index (pdr5∆): 1.48 ± 0.041 | protein stability index (san1∆): 1.26 ± 0.1 | protein stability index (ubr1∆): 1.26 ± 0.055

SAAKYKDMKLLRYYKNI [NUT1]
protein stability index (doa10∆): 1.83 ± 0.059 | protein stability index (pdr5∆): 2.2 ± 0.06 | protein stability index (san1∆): 2.23 ± 0.079 | protein stability index (ubr1∆): 1.99 ± 0.04

VNEENDSYIALYEKDIV [RET1]
protein stability index (doa10∆): 2.6 ± 0.064 | protein stability index (pdr5∆): 2.56 ± 0.076 | protein stability index (san1∆): 2.69 ± 0.061 | protein stability index (ubr1∆): 2.68 ± 0.07

ETDEYISYTSHIEGVVI [RPN1]
protein stability index (doa10∆): 3.13 ± 0.1 | protein stability index (pdr5∆): 3.44 ± 0.17 | protein stability index (ubr1∆): 3.08 ± 0.08

— the supplement of paper PMC9732359
